Molecular target: MART-1(27-35) presented by HLA-A2 on A375 melanoma cells (human) (UniProt Q16655)
Experiment: cell-based or functional assay

- TNFa, IFNg, or IL-2 in supernatant by ELISA, T cells with peptide-pulsed A375 cells (× less antigen): 10
Substance: DMF5 β:CD3z:MyD88 (from UniProt P20963 52-164; Q99836 1-155) (TCR)
